This is an account of results in publication PMC10703199.

In test [1] the target is sperm immobilization factor (SIF) from Staphylococcus aureus (Staphylococcus aureus).
Test [2] addresses SIF-binding receptor from Proteus mirabilis (PM-SBR) (Proteus mirabilis). The test can be described thus: ITC; SIF (500 μg/ml) in the syringe, 10 μl injections into PM-SBR (200 μg/ml) in the vial, PBS as reference, 37°C, stirring 200 rpm, 800 s between injections; micro reaction calorimeter. For orientation: ITC needs no label: the signal is the heat of the interaction.

In test [1], “SIF-binding receptor from Proteus mirabilis (PM-SBR) (natural protein)” returned a motility of mouse spermatozoa exposed for 20 seconds to SIF (70 μg) pre-incubated with PM-SBR (10-200 μg): amount of PM-SBR that alleviated the immobilization of 130 µg and a viability of mouse spermatozoa (eosin staining) with SIF (150 μg) pre-incubated with PM-SBR (50-300 μg): minimum effective concentration (MEC) of PM-SBR reducing sperm mortality caused by SIF of 270 µg.

In test [2], “sperm immobilization factor (SIF) from Staphylococcus aureus (natural protein)” showed a Ka of 1220 M⁻¹ and a dH of 2.29 kcal/mol.
